# Literature values as cited in patent US20240199736A1, “COMBINATION THERAPY INVOLVING ANTIBODIES AGAINST CLAUDIN 18.2 FOR TREATMENT OF CANCER” (ASTELLAS PHARMA INC., priority 2021, published 2024).
# Legend:
# [1] = biological target: splice variant 1 of Claudin 18 (CLDN18.1) (Homo sapiens, UniProt P56856)
# [2] = biological target: first extracellular domain (ECD1) of CLDN18.2 (Homo sapiens, UniProt P56856)
substance,measurement,setting,value
"IMAB362: chimeric IgG1 antibody directed against CLDN18.2; heavy chain SEQ ID NO: 51, light chain SEQ ID NO: 24",Binding to other claudin family members including CLDN18.1,[1],does not bind
same,Recognition of ECD1 of CLDN18.2,[2],high affinity and specificity
